In this experiment the target is T1, P75 (UniProt P08138 29-427).
T1 construct: whole, on cells
T1 sequence (looked up): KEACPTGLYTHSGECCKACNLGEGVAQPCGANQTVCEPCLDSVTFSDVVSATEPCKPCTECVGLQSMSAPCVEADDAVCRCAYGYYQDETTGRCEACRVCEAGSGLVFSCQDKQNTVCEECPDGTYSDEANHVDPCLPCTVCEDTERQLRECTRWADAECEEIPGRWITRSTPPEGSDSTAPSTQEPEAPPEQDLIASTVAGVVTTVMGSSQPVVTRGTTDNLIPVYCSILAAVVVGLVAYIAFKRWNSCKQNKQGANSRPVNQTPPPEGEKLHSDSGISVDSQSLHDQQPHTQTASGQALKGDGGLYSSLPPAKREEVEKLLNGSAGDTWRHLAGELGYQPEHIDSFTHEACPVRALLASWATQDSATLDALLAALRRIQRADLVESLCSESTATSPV
The experiment can be described thus: I^125-labeled ligand crosslinked to A875 tumor cells expressing P75, immunoprecipitation, SDS-PAGE, autoradiography. On the procedure:
The WT mouse NGF and mutant NGF was labeled with I¹²⁵, then added to both the cells expressing TrkA and the A875 tumor cells expressing P75. The ligand and receptor were crosslinked by N-hydroxysuccinimidyl-4-azidobenzoate, the cells were lysed, and the cross-linked complex was immunoprecipitated overnight at 4° C.

B1: mutant NGF (mouse NGF-β mature peptide with Lys32, Lys34 and Glu35 changed to Ala) (ligand)
chain: SSTHPVFHMGEFSVCDSVSVWVGDKTTATDIAGAAVTVLAEVNINNSVFRQYFFETKCRASNPVESGCRGIDSKHWNSYCTTTHTFVKALTTDEKQAAWRFIRIDTACVCVLSRKATRRG
modifications: Labelled with I^125 (labelled residues not stated). Disulfide-bonded monomer; NGF-β acts as a non-covalent homodimer, one chain given.
notes: also called mutant NGF-β; NGF mutant
As to B1, the binding result was “no binding”.

The record behind these values is US20110082285A1 (STAIDSON BEIJING PHARMACEUTICAL, published 2011).
